We go through ten molecules from article PMC11245102 (bioRxiv, 2024).

Values joined by “and” are separate entries in the source; they are usually repeats but may differ in a detail not shown here. Equal entries are not always repeated.

Data set [1] has as its target CS from a Myxococcota species (type III CS) (a Myxococcota species). Briefly: mass photometry.
In data set [2] the target is citrate synthase from M. sulfidovorans W150A (M. sulfidovorans). Briefly: mass photometry.
The target of data set [3] is non-mitochondrial CS (nmCS) from Ananas comosus (Ananas comosus). Briefly: mass photometry.
Data set [4] has the same target. Put plainly: mass photometry. This is another data set of the same source.
Data set [5] has the same target. Put plainly: cryo-EM structure.
For data set [6], the target named is non-mitochondrial CS (nmCS) from C. fasciculata (C. fasciculata). Put plainly: mass photometry.
For data set [7], the target named is non-mitochondrial CS (nmCS) from Chlamydomonas reinhardtii (Chlamydomonas reinhardtii). Put plainly: mass photometry.
For data set [8], the target named is type II CS from C. woesi (C. woesi). Briefly: mass photometry.
Data set [9] addresses type II CS from F. taffensis (F. taffensis). Put plainly: mass photometry.
Data set [10] deals with type III CS from Cyanobium sp. PCC 7001 (Cyanobium sp. PCC 7001). Put plainly: mass photometry.
The data set “mass photometry” deals with the molecule itself. Put plainly: mass photometry.

The stoichiometry N is a count of units in the complex or per binding partner. Regarding “CS from a Myxococcota species (type III CS) (enzyme)”, in data set [1], the stoichiometry N was 2. In data set [2], “citrate synthase from M. sulfidovorans W150A (enzyme)” registered a stoichiometry N of 2. “non-mitochondrial CS (nmCS) from Ananas comosus (enzyme)”: the stoichiometry N in [3] is 8; in data set [4], 6 and 8; in data set [5], 8. Molecule “non-mitochondrial CS (nmCS) from C. fasciculata (enzyme)” returned a stoichiometry N in data set [6] of 6.

The molecule “non-mitochondrial CS (nmCS) from Chlamydomonas reinhardtii (enzyme)” showed a stoichiometry N in data set [7] of 2. For type II CS from C. woesi (enzyme), in data set [8], the stoichiometry N was determined as 2. Regarding type II CS from F. taffensis (enzyme), the stoichiometry N in [9] is 2. As to “type III CS from Cyanobium sp. PCC 7001 (enzyme)”, the stoichiometry N in data set [10] came out at 2.

B1: CS from A. comosus Δ487–513 (domain or fragment)
chain: MEGAFDHSALARARLAVLSGHLAAVSAAGGGASPLERSPVSVQEIPPPPRNLGGSLAVIDGRSGKKFEFKISDEGTVRATDFKKITTGKNDKGLKLYDPGYLNTAPVRSSICYIDGDEGILRYRGYPIEELAESSSYPEVAYLLMYGNLPSKSQLADWEFAISQHSAVPQGVLDIIQGMPHDAHPMGVLVCAMSALSVFHPDANPALRGQDLYKSKQLRDKQIVRILGKVPTIAAAAYLRLAGRPPVLPSNNFSYSENFLYMLDSLGNRSYKPNTRLARVLDILFILHAEHEMNCSTAAARHLASSGVDVFTALAGAVGALYGPLHGGANEAVLKMLNEIGTVENIPDFIEGVKNRKRKMSGFGHRVYKNYDPRAKVIRKLAEEVFSIVGRDPLIEVAIALEKAALSDEYFIKRKLYPNVDFYSGLIYRAMGFPTEFFPVLFAIPRMAGYLAHWRESLDDPDTKIMRPQQVYTGVWLRHYTPLQER
B1: the “stoichiometry N” value in the data set “mass photometry” amounted to 2.

B2: non-mitochondrial CS (nmCS) from P. olsenii (enzyme)
chain: MDRLNTVAAHVAPTLTITDNRSGKKIDVKVKDGTIRATDLKQLGIQTYDPGYMNTTCCVSRISFIDGNRGVLRYRGYPIEQLAQDSSFTEVAFLLQYGELPTRGQLTQWEQDLMRHSMLHQDVATLTSAFRYDAHPMGMFVSAMAALGTLHPETNPALTSQNIYKDKAVRNKEIARILGSATTLAAMAYRHRMGRPFNTPNSDLGYTENFLYMLDVSHEGTSYRPHPKLVKALDVLFVLHAEHELNCSTSAMRHLTSSNVDVYTACAAAAGALYGPRHGGANEAVLRMLERIGSIENVPTFVDKVKQRKELLMGFGHRVYKHYDPRATIVRKIAEDVFEICGREPLIEVAMDLERIALSDPYFKDRKLYPNVDFYSGLIYKAMGFPTDMFPILFTVPRLAGWLAHWSEWIDDPENRIYRPFQVYKGYDKRDYVQVDERSEKVHSKELTVKRSAFNRRRDASLQSAAADRSEYEWIKD
B2: in “mass photometry”, the “stoichiometry N” value amounted to 6.
